Measurements published in publication PMC6377682, “ASPP proteins discriminate between PP1 catalytic subunits through their SH3 domain and the PP1 C-tail” (Nature Communications, 2019).
Substitutions are numbered along the chain they refer to. In names and notes the source's numbering stands.

B1: PP1α^317-330 peptide (peptide)
peptide: RPITPPRNSAKAKK
notes: PP1α, human, residues 324-330; source: synthetic peptide (LRI peptide synthesis core facility)
B2: human ASPP2^920-1120 (domain or fragment, UniProt Q13625 920-1120, looked up)
chain: MRVKFNPLALLLDSSLEGEFDLVQRIIYEVDDPSLPNDEGITALHNAVCAGHTEIVKFLVQFGVNVNAADSDGWTPLHCAASCNNVQVCKFLVESGAAVFAMTYSDMQTAADKCEEMEEGYTQCSQFLYGVQEKMGIMNKGVIYALWDYEPQNDDELPMKEGDCMTIIHREDEDEIEWWWARLNDKEGYVPRNLLGLYPRI
notes: ASPP2, human, residues 920-1120 (RVxF motif, ankyrin repeats, SH3 domain); pGEX-6P2 construct; source: E. coli Rosetta (DE3) pLysS, purified (glutathione-Sepharose, 3C cleavage, SEC); for the crystal co-expressed with PP1α^7-330 in E. coli BL21 (DE3)
B3: ASPP2^E1090K/D1093S (domain or fragment, human, UniProt Q13625 920-1120, looked up)
chain: B2 chain with E171K, D174S
notes: ASPP2, human, residues 920-1120 with n-Src loop mutations; also called double ASPP2 mutant mimicking the ASPP1 n-Src loop
B4: ASPP2^D1091G/E1092P (domain or fragment, human, UniProt Q13625 920-1120, looked up)
chain: B2 chain with D172G, E173P
notes: ASPP2, human, residues 920-1120 with n-Src loop mutations; also called double mutant mimicking the human iASPP n-Src loop
B5: ASPP2^D1093S (domain or fragment, human, UniProt Q13625 920-1120, looked up)
chain: B2 chain with D174S
notes: ASPP2, human, residues 920-1120 with an n-Src loop mutation; also called single ASPP2 mutant mimicking the ASPP1 n-Src loop
B6: ASPP2^D1091K/E1092V/E1094K (recombinant fragment) (domain or fragment, human, UniProt Q13625 920-1120, looked up)
chain: B2 chain with D172K, E173V, E175K
notes: ASPP2, human, residues 920-1120 with n-Src loop mutations; also called ASPP2^KVK; triple mutant mimicking the C. elegans iASPP n-Src loop
B7: PP1γ2^297-324 C-tail peptide (peptide, UniProt P36873-2 297-324, looked up)
peptide: KPAEKKKPNATRPVTPPRVASGLNPSIQ
notes: PP1 catalytic subunit gamma, testis-specific isoform γ2, human, residues 297-324; source: synthetic peptide (LRI peptide synthesis core facility)
B8: PP1β^297-327 C-tail peptide (peptide, UniProt P62140 297-327, looked up)
peptide: PSEKKAKYQYGGLNSGRPVTPPRTANPPKKR
notes: PP1 catalytic subunit beta, human, residues 297-327; source: synthetic peptide (LRI peptide synthesis core facility)
B9: human ASPP1^882-1090 (domain or fragment, UniProt Q96KQ4 882-1090, looked up)
chain: LRVRFNPLALLLDASLEGEFDLVQRIIYEVEDPSKPNDEGITPLHNAVCAGHHHIVKFLLDFGVNVNAADSDGWTPLHCAASCNSVHLCKQLVESGAAIFASTISDIETAADKCEEMEEGYIQCSQFLYGVQEKLGVMNKGVAYALWDYEAQNSDELSFHEGDALTILRRKDESETEWWWARLGDREGYVPKNLLGLYPRIKPRQRTLA
notes: ASPP1, human, residues 882-1090; source: pGEX-6P2 construct; expression and purification described only for ASPP2
B10: ASPP1^K1052E/S1055D (domain or fragment, human, UniProt Q96KQ4 882-1090, looked up)
chain: B9 chain with K171E, S174D
notes: ASPP1, human, residues 882-1090 with n-Src loop residues 1 and 4 changed to the ASPP2 residues
B11: PP1γ1^298-323 C-tail peptide (peptide, UniProt P36873 298-323, looked up)
peptide: PAEKKKPNATRPVTPPRGMITKQAKK
notes: source: synthetic peptide (LRI peptide synthesis core facility)
B12: PP1α^317-323 core PPII motif peptide (peptide)
peptide: RPITPPR
notes: as for B11
B13: human iASPP^621-828 (domain or fragment, UniProt Q8WUF5 621-828, looked up)
chain: RRARLNPLVLLLDAALTGELEVVQQAVKEMNDPSQPNEEGITALHNAICGANYSIVDFLITAGANVNSPDSHGWTPLHCAASCNDTVICMALVQHGAAIFATTLSDGATAFEKCDPYREGYADCATYLADVEQSMGLMNSGAVYALWDYSAEFGDELSFREGESVTVLRRDGPEETDWWWAALHGQEGYVPRNYFGLFPRVKPQRSKV
notes: the protein preparation paragraph prints iASPP^608-828 in pGEX-6P2
B14: PP1α^301-330 C-tail peptide (peptide, UniProt P62136 301-330, looked up)
peptide: KNKGKYGQFSGLNPGGRPITPPRNSAKAKK
notes: also called PP1α C-tail; source: synthetic peptide (LRI peptide synthesis core facility)
B15: PP1α^301-330 K330A peptide (peptide, UniProt P62136 301-330, looked up)
peptide: B14 peptide with K30A
notes: as for B11
B16: PP1α^301-330 K327A peptide (peptide, UniProt P62136 301-330, looked up)
peptide: B14 peptide with K27A
notes: also called PP1α^K327 to alanine; source: synthetic peptide (LRI peptide synthesis core facility)
B17: PP1α^301-330 K329A peptide (peptide, UniProt P62136 301-330, looked up)
peptide: B14 peptide with K29A
notes: as for B11
B18: PP1α^301-330 3KA peptide (peptide, UniProt P62136 301-330, looked up)
peptide: B14 peptide with K27A, K29A, K30A
notes: also called PP1α 3KA; source: synthetic peptide (LRI peptide synthesis core facility)

Experiments:
Details in all cases: both partners purified
[1] = molecular target: B2; experiment: ITC; PP1 peptides (350–550 μM) titrated into ASPP2^920-1120 (40 μM), 20 °C; 25 mM Tris pH 8.0, 200 mM NaCl, 0.5 mM TCEP; single binding site model; ASPP2 mutants and iASPP in place of ASPP2 for Fig. 6e
[2] = molecular target: T1, human PP1β^6-327 (human, UniProt P62140 6-327); experiment: BLI; HIS tagged PP1α, PP1β or PP1γ1 (50 μg/ml) immobilised on Ni-NTA biosensors, ASPP in solution in kinetics buffer, 25 °C, 1000 rpm; global fit 1:1 model; apparent KD
T1 construct: PP1 catalytic subunit beta, human, residues 6-327; source: bacterial culture with GroEL/GroES chaperone; purification for BLI not described

[3] = molecular target: T2, human PP1α^7-330 (human, UniProt P62136 7-330); experiment: as above
T2 construct: PP1 catalytic subunit alpha, human, residues 7-330; His6 tag kept for ITC and BLI (captured on Ni-NTA sensors); also called full-length PP1α (as the text calls it); source: for the crystal co-expressed with ASPP2^920-1120 in E. coli BL21 (DE3), purified (Ni-NTA, glutathione-Sepharose, SEC)

[4] = molecular target: T3, human PP1γ1^7-323 (human, UniProt P36873 7-323); experiment: as above
T3 construct: source: bacterial culture with GroEL/GroES chaperone; purification for BLI not described

[5] = molecular target: T2, human PP1α^7-330; experiment: ITC; ASPP2 (25 μM) titrated into His6-tagged PP1 (3–4 μM), 25 °C; 20 mM Tris pH 8, 500 mM NaCl, 0.5 mM TCEP, 1 mM MnCl2
[6] = molecular target: B4; experiment: ITC; PP1 peptides (350–550 μM) titrated into ASPP2^920-1120 (40 μM), 20 °C; 25 mM Tris pH 8.0, 200 mM NaCl, 0.5 mM TCEP; single binding site model; ASPP2 mutants and iASPP in place of ASPP2 for Fig. 6e
[7] = molecular target: B13; experiment: as above

Binder: B1
- Kd [1]: 0.27 µM

Binder: B2
- fold lower affinity than for PP1α (13.6 nM) [2]: 13 fold
- Kd [3]: 0.0136 µM
- half-life of the complex [3]: 0.517 min
- fold lower affinity than for PP1α (13.6 nM) [4]: 14 fold
- Kd [5]: 0.0061 µM

Binder: B3
- binding result [3]: binds

Binder: B4
- binding result [3]: binds

Binder: B5
- binding result [3]: binds

Binder: B6
- Kd [3]: 8.2 µM

Binder: B7
- fold lower affinity than PP1α^301-330 (143 nM) [1]: 15 fold

Binder: B8
- fold lower affinity than PP1α^301-330 (143 nM) [1]: 7 fold

Binder: B9
- binding result [2]: binds
- binding result [3]: binds
- binding result [4]: binds

Binder: B10
- binding result [3]: binds

Binder: B11
- fold lower affinity than PP1α^301-330 (143 nM) [1]: 5 fold

Binder: B12
- Kd [1]: 5.65 µM

Binder: B13
- Kd [3]: 0.0026 µM
- fold lower koff than ASPP2 on PP1α [3]: 110 fold
- fold lower kon than ASPP2 on PP1α [3]: 7 fold
- half-life of the complex [3]: 58 min
- fold preference for PP1α and PP1β over PP1γ1 [4]: 2 fold

Binder: B14
- binding result [6]: binds
- Kd [7]: 0.395 µM
- Kd [1]: 0.143 µM

Binder: B15
- binding result [1]: binds

Binder: B16
- fold decrease in affinity against PP1α^301-330 [1]: 4 fold

Binder: B17
- binding result [1]: binds

Binder: B18
- Kd [7]: 0.69 µM
- Kd [1]: 1.9 µM
